Measurements taken from paper PMC10931773.

B1: anti-CRP single-chain variable fragment (scFv) (scFv, V domains shown)
VH: QVQLQQSGAELVKPGASVKLSCTASGFNIKDYYMHWVKQRTEQGLEWIGRIDPEDGETKYAPKFQGKATITADTSSNTAYLQLSSLTSEDTAVYYCARGYYGSEAMDYWGQGTSLTVSS
VL: SIVMTQSHKFMSTSVGDRVSITCKASQDVNTAVAWYQQKPGQSPKLLIYWASTRHTGVPDRFTGSGFGTDYTLTISSVQAEDLALYYCQQHYSTPWTFGGGTKLEIK
B2: anti-CRP scFv-SpyTag (scFv, V domains shown)
VH: B1 VH
VL: B1 VL
B3: monovalent antibody-enzyme complex (anti-CRP scFv-ST joined to GDH-SC) (complex)
VH: B1 VH
VL: B1 VL

Target: T1, C-reactive protein (recombinant human CRP) (human) (UniProt P02741)
T1 sequence: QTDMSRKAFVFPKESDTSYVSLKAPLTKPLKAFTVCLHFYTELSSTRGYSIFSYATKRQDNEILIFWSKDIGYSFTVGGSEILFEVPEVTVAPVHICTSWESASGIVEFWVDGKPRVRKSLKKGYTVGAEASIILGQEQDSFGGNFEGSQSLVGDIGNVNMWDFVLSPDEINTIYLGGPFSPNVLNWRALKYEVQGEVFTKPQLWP
Test: SPR; Biacore T200; CRP immobilised on a CM5 chip by amine coupling (1074 RU); antibodies 0.50-75 nM injected at 30 µL/min, association and dissociation 120 s; 1:1 Langmuir global fit

Binder	Kd [nM]	koff [s⁻¹]	kon [M⁻¹ s⁻¹]
B1	4.8	0.0016	350000
B2	5	0.0017	340000
B3	28.7	0.0019	67000
